19 molecules from patent US20210403579A1 (DELINIA, published 2021) can be followed below.

Numbering of substitutions follows the chain as printed.

This test deals with T1, Mouse ST2 (mouse, UniProt P14719 27-332, limits assumed).
T1 construct: also called mouse ST2 protein
T1 sequence (looked up): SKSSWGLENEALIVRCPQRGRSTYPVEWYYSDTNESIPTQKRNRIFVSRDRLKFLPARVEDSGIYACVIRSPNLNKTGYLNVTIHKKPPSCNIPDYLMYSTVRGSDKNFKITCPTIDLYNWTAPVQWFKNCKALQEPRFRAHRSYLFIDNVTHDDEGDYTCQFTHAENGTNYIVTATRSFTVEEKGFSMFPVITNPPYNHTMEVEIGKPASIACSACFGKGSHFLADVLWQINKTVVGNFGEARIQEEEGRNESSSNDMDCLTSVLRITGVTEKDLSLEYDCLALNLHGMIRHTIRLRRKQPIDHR
The test can be described thus: SPR (Carterra), antibody immobilized, ST2 analyte, 1:1. The protocol:
Binding of the reformatted human ST2 antibodies to the human and mouse ST2 proteins was evaluated by surface plasmon resonance (SPR), using a high throughput antibody screening and characterization platform from Carterra (Salt Lake City, Utah).

B1: Human ST2 IgG1 Antibody 63 (antibody, V domains shown)
VH: QVQLVQSGAEVKKPGSSVKVSCKASGGTFSSDAINWVRQAPGQGLEWMGGIVPAFGTANYAQKFQGRVTITADESTSTAYMELSSLRSEDTAVYYCARSSSSWPYYYYYMDVWGKGTTVTVSS
VL: DIVMTQSPLSLPVTPGEPASISCRSSQSLLLNNGNNFIDWYLQKPGQSPQLLIYAASILQGGVPDRFSGSGSGTDFTLKISRVEAEDVGVYYCMQALQTPPTFGQGTKVEIKR
notes: IgG1, kappa; also called ST2 Antibody 63
Regarding B1, the affinity, expressed as Kd, was 2400 nM; the dissociation rate constant (koff) is 0.15 s⁻¹; the on-rate constant (kon) stood at 62000 M⁻¹ s⁻¹.

B2: Human ST2 IgG1 Antibody 76 (antibody, V domains shown)
VH: QVQLVQSGAEVKKPGSSVKVSCKASGYTFTDYYMHWVRQAPGQGLEWMGVIIPVLGAAKYAQKFQGRVTITADESTSTAYMELSSLRSEDTAVYYCAKGWGAFDIWGQGTMVTVSS
VL: EIVMTQSPATLSVSPGERATLSCRASQSVSSYLAWYQQKPGQAPRLLIYGASTRASGIPARFSGSGSGTEFTLTISSLQSEDFAVYYCQQYYSYPWTFGQGTKVEIKR
notes: IgG1, kappa; also called ST2 Antibody 76
Turning to B2, the dissociation constant Kd stood at 778 nM, the off-rate (koff) is 0.14 s⁻¹ and the kon came to 180000 M⁻¹ s⁻¹.

B3: Human ST2 IgG1 Antibody 86 (antibody, V domains shown)
VH: QVQLVQSGAEVKKPGSSVKVSCKASGGTFSNYAISWVRQAPGQGLEWMGGIIPIFGTANYAQKFQGRVTITADESTSTAYMELSSLRSEDTAVYYCAKDLGGWFNLFDPWGQGTLVTVSS
VL: B2 VL with S28G, S56T, Y92R, Y94F, W96L, Q100G
notes: IgG1, kappa; also called ST2 Antibody 86
Regarding B3, the Kd came to 507 nM, the dissociation rate constant (koff) was found to be 0.098 s⁻¹ and the kon was found to be 190000 M⁻¹ s⁻¹.

B4: Human ST2 IgG1 Antibody 49 (antibody, V domains shown)
VH: QVQLVQSGAEVKKPGASVKVSCKASGGTLSSYAISWVRQAPGQGLEWMGGISPYNGKANYAEKLQGRVTMTRDTSTSTVYMELSSLRSEDTAVYYCAIRSIAAREGVYYYYMDVWGKGTTVTVSS
VL: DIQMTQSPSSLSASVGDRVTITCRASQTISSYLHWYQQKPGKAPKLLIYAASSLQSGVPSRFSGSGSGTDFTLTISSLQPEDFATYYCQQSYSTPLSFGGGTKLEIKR
notes: IgG1, kappa; also called ST2 Antibody 49
The molecule B4 returned a Kd of 436 nM, a dissociation rate constant (koff) of 0.12 s⁻¹ and an association rate constant (kon) of 270000 M⁻¹ s⁻¹.

B5: Human ST2 IgG1 Antibody 34 (antibody, V domains shown)
VH: QVQLVQSGAEVKKPGASVKVSCKASGQTFTDYAINWVRQAPGQGLEWMGWMNPNSGNTGYAQKFQGRVTMTRDTSTSTVYMELSSLRSEDTAVYYCARETLEQQLPFDYWGQGTLVTVSS
VL: DIQMTQSPSSLSASVGDRVTITCRASQSISSWLAWYQQKPGKAPKLLIYAASTLQSGVPSRFSGSGSGTDFTLTISSLQPEDFATYYCQQYYSTLYTFGQGTKVEIKR
notes: IgG1, kappa; also called ST2 Antibody 34
Molecule B5 registered a dissociation constant Kd of 126 nM, an off-rate constant (koff) of 0.0019 s⁻¹ and an on-rate constant (kon) of 15000 M⁻¹ s⁻¹.

B6: Human ST2 IgG1 Antibody 83 (antibody, V domains shown)
VH: EVQLLESGGGLVKPGGSLRLSCAASGFTFSSYWMSWVRQAPGKGLEWVSAIGTAGDTYYPGSVKGRFTISRDDSKNTLYLQMNSLKTEDTAVYYCAILRRDKVWPFDYWGQGTLVTVSS
VL: B5 VL with W32H, A34H, T53S, Y91S, T94S, L95P, Y96V, Q100G
notes: IgG1, kappa; also called ST2 Antibody 83
Molecule B6 gave a Kd of 438 nM, a koff of 0.063 s⁻¹ and a kon of 140000 M⁻¹ s⁻¹.

B7: Human ST2 IgG1 Antibody 89 (antibody, V domains shown)
VH: EVQLLESGGGLVKPGGSLRLSCAASGFTFSSYWMSWVRQAPGKGLEWVSAISGTAINTYYADSVKGRFTISRDDSKNTLYLQMNSLKTEDTAVYYCARVRRDSSGGGAFDIWGQGTMVTVSS
VL: B5 VL with S28G, S31N, W32N, A34N, T53S, S56T, Y91S, L95P, Y96P
notes: IgG1, kappa; also called ST2 Antibody 89
Regarding B7, the Kd was determined as 989 nM, the koff was determined as 0.1 s⁻¹ and the kon came to 100000 M⁻¹ s⁻¹.

B8: Human ST2 IgG1 Antibody 98 (antibody, V domains shown)
VH: B7 VH
VL: B5 VL with S28G, S31N, W32N, A34N, T53S, S56T, Y91S, L95P, Y96P
notes: IgG1, kappa; also called ST2 Antibody 98
For the molecule B8, the dissociation constant Kd amounted to 975 nM, the koff came out at 0.12 s⁻¹ and the association rate constant (kon) was 120000 M⁻¹ s⁻¹.

B9: Human ST2 IgG1 Antibody 44 (antibody, V domains shown)
VH: B7 VH
VL: B5 VL with S28G, S31N, W32N, A34N, T53S, S56T, Y91S, L95P, Y96P
notes: IgG1, kappa; also called ST2 Antibody 44
In the case of B9, the Kd was found to be 999 nM, the off-rate (koff) came to 0.11 s⁻¹ and the kon came out at 110000 M⁻¹ s⁻¹.

B10: Human ST2 IgG1 Antibody 57 (antibody, V domains shown)
VH: QVQLVQSGAEVKKPGASVKVSCKASGYTFTGYYMHWVRQAPGQGLEWMGVINPSGGSTSYAQKFQGRVTMTRDTSTSTVYMELSSLRSEDTAVYYCARGDYYYGSGSDYYYYYGMDVWGQGTLVTVSS
VL: B5 VL with S28G, I29V, S30T, Y91A, Y92N, T94F, L95P, Y96L, Q100G
notes: IgG1, kappa; also called ST2 Antibody 57
In turn, B10 gave a Kd of 3100 nM, an off-rate constant (koff) of 0.16 s⁻¹ and a kon of 51000 M⁻¹ s⁻¹.

B11: Human ST2 IgG1 Antibody 54 (antibody, V domains shown)
VH: EVQLLESGGGLVQPGGSLRLSCAASGFTVSSNYMSWVRQAPGKGLEWVSAISGSGGSTYYADSVKGRFTISRDNSKNTLYLQMNSLRAEDTAVYYCARGRFGSRDVWGKGTTVTVSS
VL: not shown
notes: IgG1, kappa; also called ST2 Antibody 54
For B11, binding was put at a Kd of 2700 nM, the koff was 0.13 s⁻¹ and the kon was 50000 M⁻¹ s⁻¹.

B12: Human ST2 IgG1 Antibody 39 (antibody, V domains shown)
VH: QVQLVQSGAEVKKPGSSVKVSCKASGYTFTSYYMQWVRQAPGQGLEWMGGIIPIFGTANYAQKFQGRVTITADESTSTAYMELSSLRSEDTAVYYCARARFGAVDYWGQGTLVTVSS
VL: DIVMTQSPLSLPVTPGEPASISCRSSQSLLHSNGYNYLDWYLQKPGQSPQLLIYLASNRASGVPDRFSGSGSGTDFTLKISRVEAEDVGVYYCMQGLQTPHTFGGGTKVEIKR
notes: IgG1, kappa; also called ST2 Antibody 39
Take B12: binding was put at a Kd of 3400 nM, the dissociation rate constant (koff) amounted to 0.14 s⁻¹ and the kon is 42000 M⁻¹ s⁻¹.

B13: Human ST2 IgG1 Antibody 52 (antibody, V domains shown)
VH: QVQLVQSGAEVKKPGSSVKVSCKASGGTFSNYAISWVRQAPGQGLEWMGWISAYNGNTNYAQKFQGRVTITADESTSTAYMELSSLRSEDTAVYYCARLSTVTTRPYYYYGMDVWGQGTTVTVSS
VL: DIVMTQSPLSLPVTPGEPASISCRSSQSLLHSNGYNYLDWYLQKPGQSPQLLIYAASSLQGGVPDRFSGSGSGTDFTLKISRVEAEDVGVYYCMQGTHWPTFGQGTKVEIKR
notes: IgG1, kappa; also called ST2 Antibody 52
B13 registered a dissociation constant (Kd) of 2700 nM, an off-rate constant (koff) of 0.16 s⁻¹ and a kon of 59000 M⁻¹ s⁻¹.

B14: Human ST2 IgG1 Antibody 41 (antibody, V domains shown)
VH: QVQLVQSGAEVKKPGSSVKVSCKASGYTFTDYQMHWVRQAPGQGLEWVGVINPGGGSTTYAQTFQGRVTITADESTSTAYMELSSLRSEDTAVYYCARGGVEYSSSWDYYYYYGMDVWGQGTTVTVSS
VL: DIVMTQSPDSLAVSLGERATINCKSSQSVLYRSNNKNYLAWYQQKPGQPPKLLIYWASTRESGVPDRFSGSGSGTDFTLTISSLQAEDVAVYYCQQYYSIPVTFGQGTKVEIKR
notes: IgG1, kappa; also called ST2 Antibody 41
In turn, B14 showed a Kd of 845 nM, a dissociation rate constant (koff) of 0.11 s⁻¹ and a kon of 140000 M⁻¹ s⁻¹.

B15: Human ST2 IgG1 Antibody 35 (antibody, V domains shown)
VH: QVQLVQSGAEVKKPGASVKVSCKASAYTFTSYGISWLRQAPGQGLEWMGWINPNSGNTGYAHKFQGRVTMTRDTSTSTVYMELSSLRSEDTAVYYCARGGSGWPTWGQGTLVTVSS
VL: DIQMTQSPSSLSASVGDRVTITCQASQDISNYLNWYQQKPGKAPKLLIYGASSLQSGVPSRFSGSGSGTDFTLTISSLQPEDFATYYCQQANTFPFTFGPGTKVDIKR
notes: IgG1, kappa; also called ST2 Antibody 35
As to B15, binding was put at a Kd of 107 nM, the koff is 0.018 s⁻¹ and the kon was determined as 170000 M⁻¹ s⁻¹.

B16: Human ST2 IgG1 Antibody 38 (antibody, V domains shown)
VH: QVQLVQSGAEVKKPGSSVKVSCKASGGTFSSYAISWVRQAPGQGLEWMGTIIPMFGIADYAQKFQGRVTITADESTSTAYMELSSLRSEDTAVYYCARSSRSSSWYNWYFDLWGRGTLVTVSS
VL: EIVMTQSPATLSVSPGERATLSCRASQSISSSYLAWYQQKPGQAPRLLIYGASTRATGIPARFSGSGSGTEFTLTISSLQSEDFAVYYCQQYYTTPWTFGQGTKVEIKR
notes: IgG1, kappa; also called ST2 Antibody 38
Molecule B16 came in with a Kd of 529 nM, a koff of 0.09 s⁻¹ and an association rate constant (kon) of 170000 M⁻¹ s⁻¹.

B17: Human ST2 IgG1 Antibody 70 (antibody, V domains shown)
VH: QVQLVQSGAEVKKPGSSVKVSCKASGYAFTDYFIHWVRQAPGQGLEWMGGIIPIFGTANYAQKFQGRVTITADKSTSTAYMELSSLRSEDTAVYYCARVAYGAFDIWGQGTMVTVSS
VL: B16 VL with I29V, Y93N, T94N, T95W, W97L, Q101G
notes: IgG1, kappa; also called ST2 Antibody 70
Turning to B17, binding was characterised by a dissociation constant (Kd) of 3900 nM, the koff is 0.13 s⁻¹ and the on-rate constant (kon) is 33000 M⁻¹ s⁻¹.

B18: Human ST2 IgG1 Antibody 78 (antibody, V domains shown)
VH: EVQLLESGGGLVQPGGSLRLSCAASDFNFKNAWMSWVRQAPGKGLEWVSAISGNGAGTYYADSVKGRFTISRDNSKNTLYLQMNSLRAEDTAVYYCARVGETGAFDIWGQGTTVTVSS
VL: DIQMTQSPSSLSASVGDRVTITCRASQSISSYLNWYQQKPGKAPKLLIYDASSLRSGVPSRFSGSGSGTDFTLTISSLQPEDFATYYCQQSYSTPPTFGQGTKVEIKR
notes: IgG1, kappa; also called ST2 Antibody 78
B18 gave an equilibrium dissociation constant (Kd) of 744 nM, a koff of 0.13 s⁻¹ and an association rate constant (kon) of 180000 M⁻¹ s⁻¹.

B19: Human ST2 IgG1 Antibody 45 (antibody, V domains shown)
VH: QVQLVQSGAEVKKPGSSVKVSCKASGGTFSSYAISWVRQAPGQGLEWMGGIVPIFETANYAQKFQGRVTITADESTSTAYMELSSLRSEDTAVYYCARDTPNFDYWGQGTLVTVSS
VL: not shown
notes: IgG1, kappa; also called ST2 Antibody 45
Consider B19, for which the dissociation constant (Kd) is 1400 nM, the koff was 0.13 s⁻¹ and the kon amounted to 95000 M⁻¹ s⁻¹.
